# B1: Speckle-type POZ protein (Homo sapiens), O43791 (parent)
# chain: MSRVPSPPPPAEMSSGPVAESWCYTQIKVVKFSYMWTINNFSFCREEMGEVIKSSTFSSGANDKLKWCLRVNPKGLDEESKDYLSLYLLLVSCPKSEVRAKFKFSILNAKGEETKAMESQRAYRFVQGKDWGFKKFIRRDFLLDEANGLLPDDKLTLFCEVSVVQDSVNISGQNTMNMVKVPECRLADELGGLWENSRFTDCCLCVAGQEFQAHKAILAARSPVFSAMFEHEMEESKKNRVEINDVEPEVFKEMMCFIYTGKAPNLDKMADDLLAAADKYALERLKVMCEDALCSNLSVENAAEILILADLHSADQLKTQAVDFINYHASDVLETSGWKSMVVSHPHLVAEAYRSLASAQCPFLGPPRKRLKQS
# Variants of: B1
# Conditions: with brd4_human BRD4, O60885
row,Variant,effect of a mutation on the interaction
1,F102C,disrupting interaction strength

# Variants of: B1
# Conditions: with ncoa3_human NCOA3, Q9Y6Q9
row,Variant,effect of a mutation on the interaction
1,F102C,disrupting interaction strength

# Variants of: B1
# Conditions: with jun_human JUN
row,Variant,effect of a mutation on the interaction
1,F102C,disrupting interaction strength

# Variants of: B1
# Conditions: with akt1_human AKT1, P31749
row,Variant,effect of a mutation on the interaction
1,F102C,with no effect

# Variants of: B1
# Conditions: with alk_human ALK
row,Variant,effect of a mutation on the interaction
1,F102C,with no effect

# Variants of: B1
# Conditions: with aph1a_human APH1A
row,Variant,effect of a mutation on the interaction
1,F102C,with no effect

# Variants of: B1
# Conditions: with arnt_human ARNT
row,Variant,effect of a mutation on the interaction
1,F102C,with no effect

# Variants of: B1
# Conditions: with arc1a_human ARPC1A
row,Variant,effect of a mutation on the interaction
1,F102C,with no effect

# Variants of: B1
# Conditions: with bakor_human ATG14, Q6ZNE5
row,Variant,effect of a mutation on the interaction
1,F102C,with no effect

# Variants of: B1
# Conditions: with atm_human ATM
row,Variant,effect of a mutation on the interaction
1,F102C,with no effect

# Variants of: B1
# Conditions: with atpb_human ATP5F1B
row,Variant,effect of a mutation on the interaction
1,F102C,with no effect

# Variants of: B1
# Conditions: with aurkb_human AURKB
row,Variant,effect of a mutation on the interaction
1,F102C,with no effect

# Variants of: B1
# Conditions: with axin2_human AXIN2, Q9Y2T1
row,Variant,effect of a mutation on the interaction
1,F102C,with no effect

# Variants of: B1
# Conditions: with ufo_human AXL
row,Variant,effect of a mutation on the interaction
1,F102C,with no effect

# Variants of: B1
# Conditions: with za2g_human AZGP1, P25311
# za2g_human AZGP1, P25311, sequence (P25311 whole entry): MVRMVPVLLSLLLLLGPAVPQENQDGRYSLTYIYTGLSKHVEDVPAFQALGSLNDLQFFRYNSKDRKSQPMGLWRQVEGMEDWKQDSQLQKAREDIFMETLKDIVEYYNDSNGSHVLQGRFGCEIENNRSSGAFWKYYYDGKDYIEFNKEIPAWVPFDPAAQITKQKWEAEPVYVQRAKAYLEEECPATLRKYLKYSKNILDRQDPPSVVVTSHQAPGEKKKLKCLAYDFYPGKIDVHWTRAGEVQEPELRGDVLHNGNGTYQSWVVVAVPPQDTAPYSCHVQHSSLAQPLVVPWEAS
row,Variant,effect of a mutation on the interaction
1,F102C,with no effect

# Variants of: B1
# Conditions: with bap1_human BAP1, Q92560
row,Variant,effect of a mutation on the interaction
1,F102C,with no effect

# Variants of: B1
# Conditions: with bard1_human BARD1, Q99728
row,Variant,effect of a mutation on the interaction
1,F102C,with no effect

# Variants of: B1
# Conditions: with bcor_human BCOR
row,Variant,effect of a mutation on the interaction
1,F102C,with no effect

# Variants of: B1
# Conditions: with birc2_human BIRC2, Q13490
row,Variant,effect of a mutation on the interaction
1,F102C,with no effect

# Variants of: B1
# Conditions: with brd4_human BRD4, O60885
# Remark: another data set of the same source
row,Variant,effect of a mutation on the interaction
1,F102C,with no effect

# Variants of: B1
# Conditions: with baba2_human BABAM2, Q9NXR7
row,Variant,effect of a mutation on the interaction
1,F102C,with no effect

# Variants of: B1
# Conditions: with btg1_human BTG1, P62324
# btg1_human BTG1, P62324, sequence (P62324 whole entry): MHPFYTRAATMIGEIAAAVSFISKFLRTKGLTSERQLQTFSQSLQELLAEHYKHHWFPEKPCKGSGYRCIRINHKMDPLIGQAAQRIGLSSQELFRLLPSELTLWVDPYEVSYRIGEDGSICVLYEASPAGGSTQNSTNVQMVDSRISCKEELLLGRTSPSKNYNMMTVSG
row,Variant,effect of a mutation on the interaction
1,F102C,with no effect

# Variants of: B1
# Conditions: with btk_human BTK
row,Variant,effect of a mutation on the interaction
1,F102C,with no effect

# Variants of: B1
# Conditions: with ccnd1_human CCND1, P24385
row,Variant,effect of a mutation on the interaction
1,F102C,with no effect

# Variants of: B1
# Conditions: with ccnd2_human CCND2, P30279
# ccnd2_human CCND2, P30279, sequence (P30279 whole entry): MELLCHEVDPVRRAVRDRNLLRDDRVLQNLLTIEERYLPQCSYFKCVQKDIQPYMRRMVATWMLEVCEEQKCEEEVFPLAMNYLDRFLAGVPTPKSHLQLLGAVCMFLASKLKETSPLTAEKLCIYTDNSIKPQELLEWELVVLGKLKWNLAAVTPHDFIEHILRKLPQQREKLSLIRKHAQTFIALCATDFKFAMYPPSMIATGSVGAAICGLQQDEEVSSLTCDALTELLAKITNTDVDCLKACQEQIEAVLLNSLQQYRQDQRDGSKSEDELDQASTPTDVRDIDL
row,Variant,effect of a mutation on the interaction
1,F102C,with no effect

# Variants of: B1
# Conditions: with ccnd3_human CCND3, P30281
row,Variant,effect of a mutation on the interaction
1,F102C,with no effect

# Variants of: B1
# Conditions: with cd44_human CD44, P16070
row,Variant,effect of a mutation on the interaction
1,F102C,with no effect

# Variants of: B1
# Conditions: with cd79b_human CD79B
row,Variant,effect of a mutation on the interaction
1,F102C,with no effect

# Variants of: B1
# Conditions: with cdc27_human CDC27, P30260
# cdc27_human CDC27, P30260, sequence (P30260 whole entry): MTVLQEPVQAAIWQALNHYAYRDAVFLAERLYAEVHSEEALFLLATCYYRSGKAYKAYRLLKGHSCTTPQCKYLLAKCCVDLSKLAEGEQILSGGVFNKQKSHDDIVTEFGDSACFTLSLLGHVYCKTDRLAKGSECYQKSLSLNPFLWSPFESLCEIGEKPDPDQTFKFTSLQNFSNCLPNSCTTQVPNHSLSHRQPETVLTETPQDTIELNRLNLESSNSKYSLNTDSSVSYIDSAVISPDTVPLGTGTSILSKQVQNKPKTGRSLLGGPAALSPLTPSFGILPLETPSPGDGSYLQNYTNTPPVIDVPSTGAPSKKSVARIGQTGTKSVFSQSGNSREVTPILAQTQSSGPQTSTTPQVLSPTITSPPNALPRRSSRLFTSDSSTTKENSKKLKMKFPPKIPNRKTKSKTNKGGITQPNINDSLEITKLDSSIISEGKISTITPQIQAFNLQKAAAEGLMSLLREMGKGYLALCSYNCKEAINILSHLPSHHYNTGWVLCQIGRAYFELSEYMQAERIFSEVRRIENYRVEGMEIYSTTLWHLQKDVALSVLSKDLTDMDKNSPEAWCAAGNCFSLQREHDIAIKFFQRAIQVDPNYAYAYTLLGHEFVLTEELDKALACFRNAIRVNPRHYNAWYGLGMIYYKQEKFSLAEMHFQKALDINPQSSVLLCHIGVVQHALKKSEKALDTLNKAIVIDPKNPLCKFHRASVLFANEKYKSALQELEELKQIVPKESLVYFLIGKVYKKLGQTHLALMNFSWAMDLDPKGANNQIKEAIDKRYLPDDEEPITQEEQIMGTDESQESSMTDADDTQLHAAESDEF
row,Variant,effect of a mutation on the interaction
1,F102C,with no effect

# Variants of: B1
# Conditions: with cdc73_human CDC73, Q6P1J9
row,Variant,effect of a mutation on the interaction
1,F102C,with no effect

# Variants of: B1
# Conditions: with cdk4_human CDK4, P11802
row,Variant,effect of a mutation on the interaction
1,F102C,with no effect

# Variants of: B1
# Conditions: with cdk6_human CDK6, Q00534
row,Variant,effect of a mutation on the interaction
1,F102C,with no effect

# Variants of: B1
# Conditions: with cdn2c_human CDKN2C
row,Variant,effect of a mutation on the interaction
1,F102C,with no effect

# Variants of: B1
# Conditions: with chd1l_human CHD1L
row,Variant,effect of a mutation on the interaction
1,F102C,with no effect

# Variants of: B1
# Conditions: with chd2_human CHD2, O14647
row,Variant,effect of a mutation on the interaction
1,F102C,with no effect

# Variants of: B1
# Conditions: with ch3l1_human CHI3L1, P36222
# ch3l1_human CHI3L1, P36222, sequence (P36222 whole entry): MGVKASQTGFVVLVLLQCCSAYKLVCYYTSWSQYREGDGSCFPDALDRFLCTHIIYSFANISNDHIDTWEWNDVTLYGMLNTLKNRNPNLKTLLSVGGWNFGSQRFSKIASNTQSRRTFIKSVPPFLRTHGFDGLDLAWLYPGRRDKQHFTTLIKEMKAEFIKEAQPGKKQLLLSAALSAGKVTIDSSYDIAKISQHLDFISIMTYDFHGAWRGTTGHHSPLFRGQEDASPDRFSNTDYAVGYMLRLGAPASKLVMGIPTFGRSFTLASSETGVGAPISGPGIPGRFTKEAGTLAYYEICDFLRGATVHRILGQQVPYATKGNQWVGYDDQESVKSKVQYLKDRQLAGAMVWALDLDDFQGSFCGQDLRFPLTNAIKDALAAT
row,Variant,effect of a mutation on the interaction
1,F102C,with no effect

# Variants of: B1
# Conditions: with ctla4_human CTLA4, P16410
row,Variant,effect of a mutation on the interaction
1,F102C,with no effect

# Variants of: B1
# Conditions: with cul3_human CUL3, Q13618
row,Variant,effect of a mutation on the interaction
1,F102C,with no effect

# Variants of: B1
# Conditions: with cul4b_human CUL4B
row,Variant,effect of a mutation on the interaction
1,F102C,with no effect

# Variants of: B1
# Conditions: with daxx_human DAXX
row,Variant,effect of a mutation on the interaction
1,F102C,with no effect

# Variants of: B1
# Conditions: with ddx5_human DDX5, P17844
row,Variant,effect of a mutation on the interaction
1,F102C,with no effect

# Variants of: B1
# Conditions: with dll3_human DLL3, Q9NYJ7
row,Variant,effect of a mutation on the interaction
1,F102C,with no effect

# Variants of: B1
# Conditions: with duox2_human DUOX2, Q9NRD8
row,Variant,effect of a mutation on the interaction
1,F102C,with no effect

# Variants of: B1
# Conditions: with e2f2_human E2F2, Q14209
# e2f2_human E2F2, Q14209, sequence (Q14209 whole entry): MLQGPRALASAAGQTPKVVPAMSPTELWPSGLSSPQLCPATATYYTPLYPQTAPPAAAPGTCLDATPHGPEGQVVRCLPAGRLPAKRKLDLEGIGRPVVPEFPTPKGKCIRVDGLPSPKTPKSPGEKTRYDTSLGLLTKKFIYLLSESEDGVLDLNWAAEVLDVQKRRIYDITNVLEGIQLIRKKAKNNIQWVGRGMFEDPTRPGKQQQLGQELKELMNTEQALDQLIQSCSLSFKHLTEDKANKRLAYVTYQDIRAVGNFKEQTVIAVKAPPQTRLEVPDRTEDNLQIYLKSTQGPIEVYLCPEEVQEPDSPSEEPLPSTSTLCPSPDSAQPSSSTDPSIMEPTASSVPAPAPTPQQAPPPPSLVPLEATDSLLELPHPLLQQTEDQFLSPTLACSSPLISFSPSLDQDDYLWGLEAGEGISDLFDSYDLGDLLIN
row,Variant,effect of a mutation on the interaction
1,F102C,with no effect

# Variants of: B1
# Conditions: with e2f3_human E2F3, O00716
# e2f3_human E2F3, O00716, sequence (O00716 whole entry): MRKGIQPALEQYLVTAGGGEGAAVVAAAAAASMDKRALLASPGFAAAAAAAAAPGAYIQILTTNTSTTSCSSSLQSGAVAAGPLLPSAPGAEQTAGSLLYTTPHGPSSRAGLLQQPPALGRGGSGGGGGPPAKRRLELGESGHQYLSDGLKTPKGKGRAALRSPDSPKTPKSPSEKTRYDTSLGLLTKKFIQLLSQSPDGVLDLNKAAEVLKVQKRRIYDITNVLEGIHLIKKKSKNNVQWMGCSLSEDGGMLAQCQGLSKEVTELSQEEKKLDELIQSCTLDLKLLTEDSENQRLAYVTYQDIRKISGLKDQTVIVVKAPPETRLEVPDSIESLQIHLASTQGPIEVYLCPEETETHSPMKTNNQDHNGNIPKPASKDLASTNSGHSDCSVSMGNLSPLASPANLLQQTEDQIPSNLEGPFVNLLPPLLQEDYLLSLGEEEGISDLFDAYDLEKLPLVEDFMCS
row,Variant,effect of a mutation on the interaction
1,F102C,with no effect

# Variants of: B1
# Conditions: with e2f5_human E2F5, Q15329
row,Variant,effect of a mutation on the interaction
1,F102C,with no effect

# Variants of: B1
# Conditions: with e2f6_human E2F6, O75461
# e2f6_human E2F6, O75461, sequence (O75461 whole entry): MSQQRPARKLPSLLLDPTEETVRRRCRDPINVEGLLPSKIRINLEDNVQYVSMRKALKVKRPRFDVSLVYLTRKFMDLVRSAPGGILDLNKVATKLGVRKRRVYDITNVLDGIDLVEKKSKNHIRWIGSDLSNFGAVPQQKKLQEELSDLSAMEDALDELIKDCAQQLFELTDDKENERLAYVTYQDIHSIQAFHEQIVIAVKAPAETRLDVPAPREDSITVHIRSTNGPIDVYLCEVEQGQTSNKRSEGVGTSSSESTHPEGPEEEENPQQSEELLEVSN
row,Variant,effect of a mutation on the interaction
1,F102C,with no effect

# Variants of: B1
# Conditions: with e2f8_human E2F8, A0AVK6
# e2f8_human E2F8, A0AVK6, sequence (A0AVK6 whole entry): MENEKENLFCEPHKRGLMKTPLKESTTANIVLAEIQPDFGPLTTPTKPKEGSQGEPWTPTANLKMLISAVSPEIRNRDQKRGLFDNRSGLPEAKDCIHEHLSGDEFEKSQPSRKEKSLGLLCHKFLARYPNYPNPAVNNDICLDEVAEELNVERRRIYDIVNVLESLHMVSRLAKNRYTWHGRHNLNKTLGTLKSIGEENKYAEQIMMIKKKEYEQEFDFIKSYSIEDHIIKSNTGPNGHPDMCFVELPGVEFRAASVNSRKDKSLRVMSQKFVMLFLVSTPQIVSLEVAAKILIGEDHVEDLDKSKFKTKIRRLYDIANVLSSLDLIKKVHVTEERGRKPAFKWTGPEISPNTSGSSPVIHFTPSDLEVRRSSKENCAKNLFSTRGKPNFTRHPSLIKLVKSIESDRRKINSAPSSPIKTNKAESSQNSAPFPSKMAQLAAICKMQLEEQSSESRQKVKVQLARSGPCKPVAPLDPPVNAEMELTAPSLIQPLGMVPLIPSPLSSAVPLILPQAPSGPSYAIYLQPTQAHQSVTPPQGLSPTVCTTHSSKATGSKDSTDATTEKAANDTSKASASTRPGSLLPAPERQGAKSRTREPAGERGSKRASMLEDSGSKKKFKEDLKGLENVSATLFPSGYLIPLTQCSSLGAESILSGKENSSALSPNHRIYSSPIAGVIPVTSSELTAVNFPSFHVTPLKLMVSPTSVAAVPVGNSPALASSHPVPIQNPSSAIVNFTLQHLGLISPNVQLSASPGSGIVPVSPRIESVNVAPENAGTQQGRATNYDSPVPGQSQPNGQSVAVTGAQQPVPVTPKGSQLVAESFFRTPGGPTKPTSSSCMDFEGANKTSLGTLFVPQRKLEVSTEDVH
row,Variant,effect of a mutation on the interaction
1,F102C,with no effect

# Variants of: B1
# Conditions: with if4e_human EIF4E
row,Variant,effect of a mutation on the interaction
1,F102C,with no effect

# Variants of: B1
# Conditions: with epha7_human EPHA7, Q15375
row,Variant,effect of a mutation on the interaction
1,F102C,with no effect

# Variants of: B1
# Conditions: with ephb1_human EPHB1, P54762
# ephb1_human EPHB1, P54762, sequence (P54762 whole entry): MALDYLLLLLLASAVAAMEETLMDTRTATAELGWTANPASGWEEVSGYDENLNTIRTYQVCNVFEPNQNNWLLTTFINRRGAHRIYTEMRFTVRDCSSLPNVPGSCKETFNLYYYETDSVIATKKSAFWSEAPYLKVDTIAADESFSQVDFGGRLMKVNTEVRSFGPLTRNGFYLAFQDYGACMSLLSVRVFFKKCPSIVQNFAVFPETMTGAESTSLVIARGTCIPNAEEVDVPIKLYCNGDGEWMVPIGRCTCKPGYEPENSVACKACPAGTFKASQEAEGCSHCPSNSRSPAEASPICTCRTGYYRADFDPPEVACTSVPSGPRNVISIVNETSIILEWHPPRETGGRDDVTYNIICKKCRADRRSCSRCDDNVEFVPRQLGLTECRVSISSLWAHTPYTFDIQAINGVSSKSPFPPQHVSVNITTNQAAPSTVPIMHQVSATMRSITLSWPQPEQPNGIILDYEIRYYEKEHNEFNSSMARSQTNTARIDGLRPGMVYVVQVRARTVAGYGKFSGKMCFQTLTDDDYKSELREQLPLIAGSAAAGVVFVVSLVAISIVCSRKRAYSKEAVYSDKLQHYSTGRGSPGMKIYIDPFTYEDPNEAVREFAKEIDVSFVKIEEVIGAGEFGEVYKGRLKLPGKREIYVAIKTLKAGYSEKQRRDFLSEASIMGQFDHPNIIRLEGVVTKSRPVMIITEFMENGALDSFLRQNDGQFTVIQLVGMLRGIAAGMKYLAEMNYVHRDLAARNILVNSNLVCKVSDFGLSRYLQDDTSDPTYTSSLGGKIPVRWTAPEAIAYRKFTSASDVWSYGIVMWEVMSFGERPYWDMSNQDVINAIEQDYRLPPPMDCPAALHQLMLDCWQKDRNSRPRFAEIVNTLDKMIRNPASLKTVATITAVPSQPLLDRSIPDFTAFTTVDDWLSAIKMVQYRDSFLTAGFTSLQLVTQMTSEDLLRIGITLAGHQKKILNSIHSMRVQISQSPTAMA
row,Variant,effect of a mutation on the interaction
1,F102C,with no effect

# Variants of: B1
# Conditions: with erbb3_human ERBB3, P21860
row,Variant,effect of a mutation on the interaction
1,F102C,with no effect

# Variants of: B1
# Conditions: with erbb4_human ERBB4, Q15303
row,Variant,effect of a mutation on the interaction
1,F102C,with no effect

# Variants of: B1
# Conditions: with esr1_human ESR1, P03372
row,Variant,effect of a mutation on the interaction
1,F102C,with no effect

# Variants of: B1
# Conditions: with etv1_human ETV1, P50549
row,Variant,effect of a mutation on the interaction
1,F102C,with no effect

# Variants of: B1
# Conditions: with ezh1_human EZH1, Q92800
row,Variant,effect of a mutation on the interaction
1,F102C,with no effect

# Variants of: B1
# Conditions: with ezh2_human EZH2, Q15910
row,Variant,effect of a mutation on the interaction
1,F102C,with no effect

# Variants of: B1
# Conditions: with facd2_human FANCD2, Q9BXW9
row,Variant,effect of a mutation on the interaction
1,F102C,with no effect

# Variants of: B1
# Conditions: with fgf19_human FGF19, O95750
row,Variant,effect of a mutation on the interaction
1,F102C,with no effect

# Variants of: B1
# Conditions: with fgfp1_human FGFBP1, Q14512
row,Variant,effect of a mutation on the interaction
1,F102C,with no effect
